Tests used:
[1] = molecular target: T1, human Bfl-1 (c-myc-tagged) (human, UniProt Q16548 1-151, limits assumed); assay: X-ray crystal structure
T1 construct: c-myc-tagged in the fluorescence polarization and yeast-display assays; the same entry is used for them; also called c-myc-Bfl-1; Myc-tagged Bfl-1; not shown: c-myc tag
T1 sequence (looked up): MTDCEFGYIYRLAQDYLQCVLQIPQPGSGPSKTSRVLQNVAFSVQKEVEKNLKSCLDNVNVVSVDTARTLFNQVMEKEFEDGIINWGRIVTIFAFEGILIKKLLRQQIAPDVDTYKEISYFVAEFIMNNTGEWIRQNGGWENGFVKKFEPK

[2] = molecular target: T1, human Bfl-1 (c-myc-tagged); assay: fluorescence anisotropy competition (FIG. 1E)
Experimental: (§1) Fluorescence polarization assays were performed in order to measure the binding abilities of the peptide constructs. […] C-myc-tagged receptors were used for all Bcl-2 homologs. Plates were mixed at room temperature for 3 h. Experiments were done in triplicate. Data were fit, as described for competition fluorescence anisotropy experiments in Foight et al. (Foight, G. W., Ryan, J. A., Gullá, S. V, Letai, A. & Keating, A. E. Designed BH3 Peptides with High Affinity and Specificity for Targeting Mcl-1 in Cells. ACS Chem. Biol. 9, 1962-8 (2014)), to a complete competitive binding model (equation 17 in Roehrl et al., 2004)(Roehrl, M. H. A., Wang, J. Y. & Wagner, G. A General Framework for Development and Data Analysis of Competitive High-Throughput Screens for Small-Molecule Inhibitors of Protein-Protein Interactions by Fluorescence Polarization^{†}. Biochemistry 43, 16056-16066 (2004)) using a Python script.

[3] = molecular target: T1, human Bfl-1 (c-myc-tagged); assay: competition fluorescence anisotropy against fluoresceinated Bim BH3
Experimental: as §1

[4] = molecular target: T2, human Mcl-1 (c-myc-tagged) (human, UniProt Q07820 172-327); assay: assay not named in the sentence (competition fluorescence anisotropy elsewhere)
T2 construct: c-myc-tagged in the fluorescence polarization assay; also called c-myc-Mcl-1; not shown: c-myc tag
T2 sequence (Q07820 172-327 limits assumed): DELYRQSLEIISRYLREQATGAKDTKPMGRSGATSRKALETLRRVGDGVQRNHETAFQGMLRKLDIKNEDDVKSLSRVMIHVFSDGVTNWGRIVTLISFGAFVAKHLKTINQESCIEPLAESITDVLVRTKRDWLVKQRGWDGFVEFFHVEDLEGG

B1: Puma BH3 peptide (23 residues) (peptide, UniProt Q9BXH1 132-154, looked up)
peptide: Ac-QWAREIGAQLRRMADDLNAQYER-NH2
notes: domain: BH3
binding result [1]: binds

B2: PUMA/FS2 chimeric peptide: PUMA with larger residues at positions A2 and E2 (peptide)
peptide: Ac-QWVREIAAQLRRMADDLNAQYER-NH2
notes: also called PUMA/FS2 chimeric peptides
fold increase in affinity against PUMA [2]: 2.3 fold

B3: FS1 (peptide)
peptide: Ac-QWVREIAAGLRLAADNVNAQLER-NH2
Ki [3]: 15 nM

B4: FS2 (peptide)
peptide: Ac-QWVREIAAGLRRAADDVNAQVER-NH2
fold increase in affinity against the chimera with smaller residues at G2, D3, A4 and E4 [2]: 28.6 fold | fold weaker than binding to Bfl-1 [4]: > 100 fold

B5: PUMA/FS2 chimeric peptide: PUMA with smaller residues at positions G2, D3, A4 and E4 (peptide)
peptide: Ac-QWAREIGAGLRRAADDVNAQVER-NH2
notes: as for B2
binding result [2]: binds

Reference: US20190185531A1 (MIT, published 2019)
